The target of one series is MeCP2 MBD-TRD wild type (UniProt P51608 78-310). The experiment in a line: EMSA; 2, 4, 8 uM protein; 1.8 uM DNA; 1.8 uM poly(dG-dC) competitor; reference; EMSA: 100 mM Tris-HCl pH 7.5, 500 mM KCl, 10 mM DTT, 1.8 uM poly(dG-dC), room temperature 30 min; 8% native PAGE in Tris-glycine pH 8.3 at 277 K. Conditions: protein: recombinant; 5' overhang 1 nt on each strand (T and A), 19 bp. In general terms: A gel shift assay detects complexes by their altered migration in electrophoresis.

The target in a further series is MeCP2 MBD wild type (UniProt P51608 78-163). The description is as above. The following applies: protein: recombinant; 5' overhang 1 nt on each strand (T and A), 19 bp.

B1: methylated BDNFProIII 20-mer (dsDNA)
DNA 1: TCTGGAACGGAATTCTTCTA
DNA 2: ATAGAAGAATTCCGTTCCAG
modifications: 5-methylcytosine at position 8 of strand 1 and position 13 of strand 2 (C33 in duplex numbering)
Regarding B1, the binding signal in the series with MeCP2 MBD-TRD wild type is 100 % of wild-type MBD-TRD complex; in the series with MeCP2 MBD wild type it was 100 % of wild-type MBD complex.

The record behind these values is PMC4977486, “A/T Run Geometry of B-form DNA Is Independent of Bound Methyl-CpG Binding Domain, Cytosine Methylation and Flanking Sequence”.
